Source: US6730828B1, “Isolated nucleic acids encoding a wheat glutathione transferase, plants transformed therewith and methods of use thereof” (Aventis Agriculture Limited, priority 1997, dated 2004)

Assays:
Format in all cases: biochemical
[1] = GST activity toward herbicide fenoxaprop-ethyl (HPLC-based assay); conditions: recombinant wheat GST expressed in E. coli, affinity purified; ± standard error
[2] = GST activity toward ethacrynic acid; conditions: recombinant wheat GST, affinity purified; ± standard error; N.D = not detected
Experimental: (§1) To assay the recombinant fusion proteins for GST activity, the E. coli were grown in the presence of IPTG and then pelleted by centrifugation. The bacteria were then lysed by sonication and the protein precipitated using 80% ammonium sulphate. After resuspension and desalting, GSTs were purified by affinity chromatography. The WIC 3 fusion protein was purified using sulphobromophthalein-S-glutathione affinity chromatography (Mozer et al. Biochem. 22, 1983, 1068-1072) while the other WIC fusion proteins were purified using glutathione-agarose (Mannervik and Guthenberg. Methods Enzymol. 77 1981, 231-235).The purified enzymes were then assayed for GST activities toward herbicides (Table 3) and GST activities toward non-herbicide substrates and glutathione peroxidase activities toward organic hydroperoxides (Table 4).

[3] = GST activity toward herbicide fluorodifen (HPLC-based assay); conditions: recombinant wheat GST expressed in E. coli, affinity purified; ± standard error
[4] = GST activity toward crotonaldehyde; conditions: recombinant wheat GST, affinity purified; ± standard error
Experimental: as §1

[5] = GST activity toward CDNB; conditions: recombinant wheat GST expressed in E. coli, affinity purified
[6] = Glutathione peroxidase activity toward cumene hydroperoxide; conditions: recombinant wheat GST, affinity purified; ± standard error (n = 3)
[7] = GST activity toward benzyl isothiocyanate; conditions: recombinant wheat GST, affinity purified; ± standard error
Experimental: as §1

[8] = GST activity toward herbicide metolachlor (HPLC-based assay); conditions: recombinant wheat GST expressed in E. coli, affinity purified; ± standard error

B1: WIC 4: recombinant type I wheat GST, SEQ ID No. 11, amino acid SEQ ID No. 12; coding sequence identical in WIC 10 (protein)
chain: MAPVKVFGPAMSTNVARVLVCLEEVGAEYEVVDIDFKAMEHKSPEHLVRNPFGQIPAFQDGDLLLFESRAIARYVLRKYKKNEVDLLREGDLKEAAMVDVWTEVDAHTYNPAISPIVYECSSTAHARLPTNQTVVDESLEKLKNVLEVYEARLSKHDYLAGDFVSFADLNHFPYTFYFMATPHAALFDSYPHVKAWWERIMARPAVKKLAAQMVPKKP
modifications: Triticum aestivum L.
[1]
  GST activity toward fenoxaprop-ethyl: 0.012 ± 0.001 nkat.mg^−1
[2]
  GST activity toward ethacrynic acid: 1.4 ± 0.3 nkat.mg^−1
[3]
  GST activity toward fluorodifen: 0.036 ± 0.004 nkat.mg^−1
[4]
  GST activity toward crotonaldehyde: 5.5 ± 0.6 nkat.mg^−1
[5]
  GST activity toward CDNB: 980 nkat.mg^−1
[6]
  Glutathione peroxidase activity toward cumene hydroperoxide: 6.2 ± 0.3 absorbance change at 340 nm.mg^−1
[7]
  GST activity toward benzyl isothiocyanate: 4.2 ± 0.4 nkat.mg^−1
[8]
  GST activity toward metolachlor: 0.037 ± 0.003 nkat.mg^−1
